Measured values from publication PMC7477763.

Tests used:
[1] = molecular target: human UCH-L3, recombinant (human) (UniProt P15374)
[2] = molecular target: Middle East respiratory syndrome papain-like protease (MERS PLpro), recombinant (Middle East respiratory syndrome coronavirus)

UniProt P15374, sequence (P15374 whole entry): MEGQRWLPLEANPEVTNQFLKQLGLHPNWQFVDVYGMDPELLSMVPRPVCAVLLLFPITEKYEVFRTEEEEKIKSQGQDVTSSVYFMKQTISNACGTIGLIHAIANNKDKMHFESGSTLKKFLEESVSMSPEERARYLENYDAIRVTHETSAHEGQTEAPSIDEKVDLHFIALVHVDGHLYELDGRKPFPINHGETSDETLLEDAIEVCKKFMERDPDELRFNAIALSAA

Ub-ACC (ubiquitin with C-terminal ACC fluorophore) (from UniProt P0CG48 1-76)
KM of hydrolysis of the ACC-labeled substrate (release of ACC) [1]: 0.048 µM | kcat of hydrolysis of the ACC-labeled substrate [1]: 0.107 s^–1 | KM of hydrolysis of the ACC-labeled substrate (release of ACC) [2]: 3.55 µM | kcat of hydrolysis of the ACC-labeled substrate [2]: 3.68 s^–1 | kcat/KM of hydrolysis of the ACC-labeled substrate [2]: 1e+06 M^–1 s^–1
